In paper PMC10756753, “Redox-mediated activation of ATG3 promotes ATG8 lipidation and autophagy progression in Chlamydomonas reinhardtii” (Plant Physiology, 2023):

B1: Saccharomyces cerevisiae ATG3, wild type (enzyme, UniProt P40344 1-310, looked up)
chain: MIRSTLSSWREYLTPITHKSTFLTTGQITPEEFVQAGDYLCHMFPTWKWNEESSDISYRDFLPKNKQFLIIRKVPCDKRAEQCVEVEGPDVIMKGFAEDGDEDDVLEYIGSETEHVQSTPAGGTKDSSIDDIDELIQDMEIKEEDENDDTEEFNAKGGLAKDMAQERYYDLYIAYSTSYRVPKMYIVGFNSNGSPLSPEQMFEDISADYRTKTATIEKLPFYKNSVLSVSIHPCKHANVMKILLDKVRVVRQRRRKELQEEQELDGVGDWEDLQDDIDDSLRVDQYLIVFLKFITSVTPSIQHDYTMEGW
notes: ATG3 (E2-like enzyme of the ATG8 conjugation system), Saccharomyces cerevisiae; catalytic Cys234; also called ScATG3; ScATG3^WT

Experiments:
[1] = molecular target: Chlamydomonas reinhardtii ATG3, wild type (Chlamydomonas reinhardtii); assay: non-reducing SDS-PAGE; purified ATG3 (about 2.5-3 ug) in 50 mM Tris-HCl pH 7.5, 25 °C, untreated or treated with DTTred, GSH, DTTox, H2O2 or Cu2+; stopped with βME-free loading buffer, 5 min at 65 °C; 12% or 15% gels, Coomassie; monomer against disulfide-linked dimer
[2] = molecular target: the molecule itself; assay: as above

Molecule	stoichiometry N [1]	stoichiometry N [2]
Chlamydomonas reinhardtii ATG3, wild type (enzyme)	2	–
B1	–	2
